Measurements: US6084072A, “Purified lectin and methods of use” (The Regents of the University of Michigan, priority 1993, dated 2000)
Where “and” joins values, the source holds several entries; their conditions need not be identical. Equal entries are not always repeated.

Columns and labels:
[1] = target: amaranthin (Amaranthus caudatus, UniProt Q71QF2); test: Precipitation of amaranthin by glycoproteins and glycoconjugates, native or glycosidase treated; format: binding; settings: untreated glycoprotein or glycoconjugate; 80 μg amaranthin
Experimental: Glycosidase digestions, and in particular exo-β-galactosidase digestions were carried out for 9 hours at 37° C. in 0.1 M sodium citrate, pH 4.3 using 0.1 unit of enzyme/μmol of terminal galactosyl group. Endo-α-N-acetylgalactosaminidase treatment of asialo-ovine submaxillary mucin was done as described in Sadler, J. E., Rearick, J. L., Paulson, J. C., and Hill, R. L. (1979). GSC Exo-α-N-acetylgalactosaminidase digestion of asialo-ovine submaxillary mucin was carried out according to the recommendations of Genzyme of Boston, Mass. Glycoproteins were analyzed for carbohydrate composition, before and after glycosidase treatment, as described.
Precipitation assays were conducted in 1.5 ml centrifuge tubes by the method of So and Goldstein. Indicated amounts of glycoprotein were added to 80 μg of amaranthin, and the total volume was adjusted to 250 μl with phosphate buffered saline. The tubes were incubated at 37° C. and then kept at 4° C. for 2 days. The precipitates were centrifuged, washed with cold Phosphate buffered saline, dissolved in 0.05 N NaOH and analyzed for protein by the method of Lowery et al. using bovine serum albumin as the standard. […] Inhibition was determined relative to the amount of precipitate formed in the control with no sugar added. […]

[2] = test system: human red blood cells (A, B, and O); settings: see Lotan; cited from earlier work
[3] = test system: FAP colonic tissue; test: Lectin histochemistry, familial adenomatous polyposis (FAP) colonic tissue; format: binding, human; settings: biotinylated ACA 10 μg/mL or PNA 20 μg/mL
From the text: Full thickness specimens of colonic tissue were obtained from colectomy specimens for familial adenomatous polyposis at Johns Hopkins Hospital, fixed in formalin, and embedded in paraffin for tissue sectioning. The tissue specimens contained normal-appearing flat mucosa familial adenomatous polyposis, or FAP-normal, as well as a polypoid, adenomatious tissue familial adenomatous polyposis, or FAP-abnormal.
(§1) Four micron paraffin embedded tissue sections attached to glass slides were deparaffinized by serial incubations in xylene (twice), absolute ethanol (thrice), 95% ethanol, 70% ethanol, water and finally equilibrated in phosphate buffered saline (PBS), pH 7.0, containing 0.1% bovine serum albumin (BSA) commercially available from Sigma Corp of St. Louis, Mo. The slides were blotted dry adjacent to the tissue sections, and biotinylated lectin was added at a concentration of 10 μg/ml (for ACA) and 20 μg/ml (for PNA) in a quantity sufficient to completely cover the hydrated tissue (100-2001 μl). The lectin was rinsed off after a 30 minute incubation by eight 2-second dips into phosphate buffered saline. […]
Therefore, each individual crypt of Lieberkuhn was given a score from 0-4^+, and the labeling was expressed as a "weighted average", or, the sum of scores from 100 crypts, which could range from 0 (all crypts not labeled) to 400 (all 100 crypts maximally labeled). […]

[4] = test system: HNPCC tissues; test: Lectin histochemistry, HNPCC rectal biopsies; format: binding, human; settings: biotinylated ACA 10 μg/mL or PNA 20 μg/mL
From the text: Rectal biopsies were obtained from individuals who were first degree relatives of patients with hereditary nonpolyposis colorectal cancer (HNPCC) as identified by H. T. Lynch, M.D. These patients were the siblings or offspring of index patients who fit the criteria for Lynch Syndrome I or II. See Drzeniek, Z., and Usowska, E. (1979) Arch. Immunol Ther. Exp. 27, 253-262. However, since there is no definitive genetic or phenotypic marker for this familial syndrome, it is not possible to be certain that these patients represent a single homogenous genetic abnormality. The biopsies were fixed in formalin, and embedded in paraffin for tissue sectioning.
as §1

[5] = test system: well differentiated colonic adenocarcinoma sections; test: Inhibition of lectin binding with hapten sugars on tissue sections; design: species or system human; key to Labeling score: 4^+: Maximum labeling of the brown reaction product; 0: No staining of the slide compared to control sections; 1^+: trace or weak staining definitely not seen on control slides; 2+3^+: stronger staining, but definitely less than maximal
Experimental: Four micron paraffin embedded tissue sections attached to glass slides were deparaffinized by serial incubations in xylene (twice), absolute ethanol (thrice), 95% ethanol, 70% ethanol, water and finally equilibrated in phosphate buffered saline (PBS), pH 7.0, containing 0.1% bovine serum albumin (BSA) commercially available from Sigma Corp of St. Louis, Mo. The slides were blotted dry adjacent to the tissue sections, and biotinylated lectin was added at a concentration of 10 μg/ml (for ACA) and 20 μg/ml (for PNA) in a quantity sufficient to completely cover the hydrated tissue (100-2001 μl). The lectin was rinsed off after a 30 minute incubation by eight 2-second dips into phosphate buffered saline. The slides were again blotted, and the tissue covered with Streptavidin-horseradish peroxidase (HRP) obtained from Zymed Laboratories, San Francisco, Calif. at a concentration of 10 μg/ml for 30 minutes. The slides were rinsed as mentioned above, and the pigmented reaction product developed by the addition of a freshly prepared chromogen reagent solution prepared within two hours of use as follows.
3,3'-diaminobenzidine was aliqotted at 5 mg/mL in 0.01 M (Tris) tris hydroxy methyl amino methane saline, pH 7.5 and frozen at -70° C. until use. For use, the aliquot was thawed, diluted 1:10 in 0.01 M (Tris) tris hydroxy methyl amino methane saline pH 7.5, and 3.3 μL of 30% H2 O2 were added to each 5 ml. This solution was allowed to stand for 10 min, and 100-200 μl was applied to the tissue sections that had been incubated earlier with biotinylated lectin and Streptavidin-HRP. After 10 min, the slides were rinsed with albumin-free phosphate buffered saline. The tissues were briefly counterstained for 50 seconds with Gill's #3 hematoxylin bovine serum albumin, commercially available from Sigma Corp. of St. Louis, Mo., rinsed with water, and serially dehydrated using graded alcohols and xylene, and embedded in Permount, a trademarked, commercially available product of Allied-Fischer Scientific of Livonia, Mich.
The specificity of lectin binding was evaluated by preincubating the biotinylated lectin with inhibitory hapten sugar for 1-2 hours prior to its application to the tissue. In each instance, the reagents were prepared so that the final concentration of lectin on the slide was either 10 or 20 μg/ml and the hapten sugar was as indicated in the results. Galactose, lactose, GalNAc, and galactose-β1-3N-acetylgalactosamine-α-O-benzyl (T-antigen-α-O-benzyl) were also obtained from Sigma Corp.
The stained sections were examined with a light microscope using a 25× and 40× objective lenses and 10× eyepiece. Evaluation of lectin binding required the use of several approaches. First, the binding specificity was confirmed by coincubation of lectin with hapten sugars known to bind the lectin maximally. Maximum labeling of the brown reaction product was arbitrarily assigned a score 4^+. See Boland, C. R., Bresalier, R. S., and Roberts, J. A. "Assay of lectin binding sites in colonic cancer-associated mucins: comparison of fluorescence microscopy with a quantitative chromatographic technique." J. Histochem. Cytochem., 36: 1329-1334, 1988. No staining of the slide compared to control sections (i.e., in which lectin was omitted from the staining procedure) was assigned a score of 0. Intermediate scores of 1^+ (trace or weak staining definitely not seen on control slides) and 2+3^+ (stronger staining, but definitely less than maximal) were assigned. […] See Boland. This method was used to confirm the binding specificity to known "positive" tissues and to evaluate changes in lectin binding after neuraminidase treatment.
Specimens of well differentiated colonic cancers were incubated with biotinylated lectins. Working concentrations on the slide were 10 μg/ml for ACA and 20 μg/ml for PNA. The hapten sugars galactose (Gal), N-acetylgalactosamine (GalNAc), and Galβ1,3GalNAc-α-O-benzyl (T-antigen) were used to inhibit lectin binding to the tissues. […]

[6] = test system: colonic adenocarcinoma; format: binding, human; settings: cancer specimens
[7] = test system: normal colonic epithelium; format: binding, human

Sequence of amaranthin (Q71QF2 entry or part of it): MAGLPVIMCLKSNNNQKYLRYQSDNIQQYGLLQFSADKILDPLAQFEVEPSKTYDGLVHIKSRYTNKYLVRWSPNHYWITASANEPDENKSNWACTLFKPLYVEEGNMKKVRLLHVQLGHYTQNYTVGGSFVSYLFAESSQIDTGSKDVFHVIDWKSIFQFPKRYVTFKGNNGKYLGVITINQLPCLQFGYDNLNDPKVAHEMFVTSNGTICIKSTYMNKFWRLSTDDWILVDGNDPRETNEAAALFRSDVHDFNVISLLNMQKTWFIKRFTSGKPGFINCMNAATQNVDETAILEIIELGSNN

B1: asialoglycophorin: desialylated glycophorin (protein, UniProt P02724 20-150, looked up)
Glycophorin-A: LSTTEVAMHTSTSSSVTKSYISSQTNDTHKRDTYAATPRAHEVSEISVRTVYPPEEETGERVQLAHHFSEPEITLIIFGVMAGVIGTILLISYGIRRLIKKSPSDVKPLPSPDTDVPLSSVEIENPETSDQ
modifications: desialylated
notes: desialylated glycophorin
precipitation of amaranthin, in words [1]: most active precipitating agent

B2: glycophorin: native glycophorin, major component of red blood cell membranes (protein, UniProt P02724 20-150, looked up)
Glycophorin-A: B1 Glycophorin-A
precipitation of amaranthin, in words [1]: small amount of precipitate

B3: PNA: peanut (Arachis hypogaea) agglutinin, T-antigen binding lectin (protein, UniProt P02872 24-273, looked up)
Galactose-binding lectin: AETVSFNFNSFSEGNPAINFQGDVTVLSNGNIQLTNLNKVNSVGRVLYAMPVRIWSSATGNVASFLTSFSFEMKDIKDYDPADGIIFFIAPEDTQIPAGSIGGGTLGVSDTKGAGHFVGVEFDTYSNSEYNDPPTDHVGIDVNSVDSVKTVPWNSVSGAVVKVTVIYDSSTKTLSVAVTNDNGDITTIAQVVDLKAKLPERVKFGFSASGSLGGRQIHLIRSWSFTSTLITTTRRSIDNNEKKIMNMASA
agglutination of native A, B, or O red blood cells, in words [2]: does not agglutinate | Staining (global score 0-3+) [3]: does not bind and 0 | Staining (global score 0-3+) [4]: rarely binds and 0 and 1^+ | GalNAc concentration that inhibited labeling [5]: ≥ 100 mM | T-antigen concentration that inhibited labeling [5]: ≥ 100 µM | galactose concentration that inhibited labeling [5]: ≥ 10 mM | lactose concentration that inhibited labeling [5]: ≥ 10 mM | Labeling score ([5]; Gal 2.5 mM): Trace | Labeling score ([5]; Gal 10 mM): 0 | Labeling score ([5]; Gal 20 mM): 0 | Labeling score ([5]; Gal 100 mM): 0 | Labeling score ([5]; Gal 400 mM): 0 | Labeling score ([5]; GalNAc 100 mM): 0 | Labeling score ([5]; GalNAc 250 mM): 0 | Labeling score ([5]; Lactose 200 mM): 0 | Labeling score ([5]; Lactose 400 mM): 0 | Labeling score ([5]; T-antigen 100 μM): 0 | Labeling score ([5]; T-antigen 200 μM): 0 | Labeling score ([5]; T-antigen 400 μM): 0 | Effect of Newcastle disease virus neuraminidase on labeling [6]: much less effect | Effect of V. Cholerae neuraminidase on labeling [6]: greatly enhanced | Effect of neuraminidase treatment on labeling [7]: did not produce an increase | Labeling of normal colon in the tissue survey [7]: No labeling | Staining (global score 0-3+) ([7]; biotinylated ACA 10 μg/mL or PNA 20 μg/mL): does not bind and 0
